{"source": "paper PMC8528422", "about": "(Science Advances, 2021)", "binders": {"B1": {"name": "FleN, full length (residues 1 to 280), wild type (natural protein, Pseudomonas aeruginosa, UniProt G3XD64 1-280, looked up)", "chain": "MKQMGSMHPVQVIAVTGGKGGVGKTNVSVNLALALADLGRRVMLLDADLGLANVDVLLGLTPKRTLADVIEGRCELRDVLLLGPGGVRIVPAASGTQSMVHLSPMQHAGLIQAFSDISDNLDVLVVDTAAGIGDSVVSFVRAAQEVLLVVCDEPTSITDAYALIKLLNRDHGMTRFRVLANMAHSPQEGRNLFAKLTKVTDRFLDVALQYVGVIPYDESVRKAVQKQRAVYEAFPRSKASLAFKAVAQKVDSWPLPANPRGHLEFFVERLVQHPATGSAV"}, "B2": {"name": "FleQ AAA+ ATPase (central) domain, residues 142 to 395 (domain or fragment)", "chain": "not shown", "modifications": "biotin (EZ-Link NHS-PEG4-Biotin) for the BLI assay"}, "B3": {"name": "FleN L263W (natural protein, Pseudomonas aeruginosa, UniProt G3XD64 1-280, looked up)", "chain": "B1 chain with L263W"}, "B4": {"name": "FleN D48A (natural protein, Pseudomonas aeruginosa, UniProt G3XD64 1-280, looked up)", "chain": "B1 chain with D48A"}, "B5": {"name": "FleN truncated by 25 amino acids at the C terminus, residues 1 to 255 (domain or fragment, Pseudomonas aeruginosa, UniProt G3XD64 1-255, looked up)", "chain": "MKQMGSMHPVQVIAVTGGKGGVGKTNVSVNLALALADLGRRVMLLDADLGLANVDVLLGLTPKRTLADVIEGRCELRDVLLLGPGGVRIVPAASGTQSMVHLSPMQHAGLIQAFSDISDNLDVLVVDTAAGIGDSVVSFVRAAQEVLLVVCDEPTSITDAYALIKLLNRDHGMTRFRVLANMAHSPQEGRNLFAKLTKVTDRFLDVALQYVGVIPYDESVRKAVQKQRAVYEAFPRSKASLAFKAVAQKVDSWPL"}}, "key": {"crystal structure": {"target": "the molecule itself", "experiment": "crystal structure"}, "[1]": {"target": "FleQ, full length (FleQFL) (Pseudomonas aeruginosa, UniProt G3XCV0 1-490, biotin (EZ-Link NHS-PEG4-Biotin) for the BLI assay)", "sequence (G3XCV0 whole entry)": "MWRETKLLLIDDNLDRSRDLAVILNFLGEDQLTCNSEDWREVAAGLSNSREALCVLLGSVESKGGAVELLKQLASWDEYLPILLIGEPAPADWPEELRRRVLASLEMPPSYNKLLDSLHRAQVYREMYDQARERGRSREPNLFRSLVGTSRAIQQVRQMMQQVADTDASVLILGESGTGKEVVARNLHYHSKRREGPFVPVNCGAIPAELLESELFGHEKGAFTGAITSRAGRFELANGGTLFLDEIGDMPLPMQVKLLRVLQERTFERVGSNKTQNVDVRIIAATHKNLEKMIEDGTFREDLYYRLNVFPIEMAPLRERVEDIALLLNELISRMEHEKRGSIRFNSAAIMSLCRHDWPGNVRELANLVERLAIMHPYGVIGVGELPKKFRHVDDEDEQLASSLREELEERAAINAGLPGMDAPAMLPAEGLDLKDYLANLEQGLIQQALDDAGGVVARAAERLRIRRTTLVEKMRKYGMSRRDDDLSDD", "experiment": "BLI"}, "[2]": {"target": "B1", "experiment": "BLI"}, "cross-linking": {"target": "the molecule itself", "experiment": "cross-linking"}}, "note": "Changes are numbered by the printed parent chain. Names and notes keep the numbering of the source."}
{"binder": "B1", "values": [{"measurement": "stoichiometry N", "setting": "crystal structure", "value": 2}, {"measurement": "Kd", "setting": "[1]", "value": 340, "unit": "nM"}]}
{"binder": "B2", "values": [{"measurement": "Kd", "setting": "[2]", "value": 260, "unit": "nM"}]}
{"binder": "B3", "values": [{"measurement": "stoichiometry N", "setting": "cross-linking", "value": 2}, {"measurement": "fold change of KD against WT FleN", "setting": "[1]", "value": 100, "unit": "fold"}]}
{"binder": "B4", "values": [{"measurement": "binding result", "setting": "[1]", "value": "binds"}]}
{"binder": "B5", "values": [{"measurement": "stoichiometry N", "setting": "cross-linking", "value": 2}]}
